In patent US20060286609A1 (BIOCHECK, published 2006):
Residue numbers refer to the chain shown, from its start.

Experiments:
Human Id2: Histidine [1] = molecular target: T1, Human Id2: Histidine (human, UniProt Q02363 1-134, limits assumed); experiment: ELISA, coated antigen, Ab 0.050 ug/ml
T1 construct: E. coli fusion protein (vector pGW07); also called h-Id2: His; not shown: His-tag
T1 sequence (looked up): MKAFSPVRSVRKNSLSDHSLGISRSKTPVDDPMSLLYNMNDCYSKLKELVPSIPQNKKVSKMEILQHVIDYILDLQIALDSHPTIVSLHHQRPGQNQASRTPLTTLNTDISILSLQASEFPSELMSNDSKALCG

Mouse Id4: Histidine [2] = molecular target: T2, Mouse Id4: Histidine (mouse, UniProt P41139 1-161, limits assumed); experiment: ELISA, coated antigen, Ab 0.050 ug/ml
T2 construct: E. coli fusion protein (vector pGW07); also called m-Id4: His; not shown: His-tag
T2 sequence (looked up): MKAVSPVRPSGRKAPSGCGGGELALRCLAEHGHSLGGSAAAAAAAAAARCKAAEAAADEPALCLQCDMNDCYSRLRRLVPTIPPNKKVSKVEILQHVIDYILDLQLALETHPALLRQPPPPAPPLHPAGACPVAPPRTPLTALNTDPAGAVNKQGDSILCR

Mouse Id1: Histidine [3] = molecular target: T3, Mouse Id1: Histidine (mouse, UniProt P20067-2 1-148); experiment: ELISA, coated antigen, Ab 0.050 ug/ml
T3 construct: E. coli fusion protein (vector pGW07); also called m-Id1-His; not shown: His-tag
T3 sequence: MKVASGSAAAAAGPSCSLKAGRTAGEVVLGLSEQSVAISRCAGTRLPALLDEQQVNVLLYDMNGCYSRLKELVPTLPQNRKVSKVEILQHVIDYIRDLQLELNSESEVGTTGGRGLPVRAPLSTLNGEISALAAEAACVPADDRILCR

Human Id4: Histidine [4] = molecular target: T4, Human Id4: Histidine (human, UniProt P47928 1-161, limits assumed); experiment: ELISA, coated antigen, Ab 0.050 ug/ml
T4 construct: E. coli fusion protein (vector pGW07); also called h-Id4: His; not shown: His-tag
T4 sequence (looked up): T2 sequence (looked up) with L125H, A130T, V133A

Mouse Id3: Histidine [5] = molecular target: T5, Mouse Id3: Histidine (mouse, UniProt P41133 1-119, limits assumed); experiment: ELISA, coated antigen, Ab 0.050 ug/ml
T5 construct: E. coli fusion protein (vector pGW07); also called m-Id3: His; not shown: His-tag
T5 sequence (looked up): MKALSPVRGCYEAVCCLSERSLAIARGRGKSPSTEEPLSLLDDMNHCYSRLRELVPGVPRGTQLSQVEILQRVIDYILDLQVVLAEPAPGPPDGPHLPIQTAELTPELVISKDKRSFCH

Human Id3: Histidine [6] = molecular target: T6, Human Id3: Histidine (human, UniProt Q02535 1-119, limits assumed); experiment: ELISA, coated antigen, Ab 0.050 ug/ml
T6 construct: E. coli fusion protein (vector pGW07); also called h-Id3: His; not shown: His-tag
T6 sequence (looked up): T5 sequence (looked up) with S31G, S33A, T34A, K112N

Mouse Id2: Histidine [7] = molecular target: T7, Mouse Id2: Histidine (mouse, UniProt P41136 1-134, limits assumed); experiment: ELISA, coated antigen, Ab 0.050 ug/ml
T7 construct: E. coli fusion protein (vector pGW07); also called m-Id2: His; not shown: His-tag
T7 sequence (looked up): T1 sequence (looked up) with S60T, A131V

Mouse Id4: Histidine [8] = molecular target: T2, Mouse Id4: Histidine; experiment: ELISA, coated antigen, Ab 0.025 ug/ml
Mouse Id3: Histidine [9] = molecular target: T5, Mouse Id3: Histidine; experiment: ELISA, coated antigen, Ab 0.025 ug/ml
Human Id3: Histidine [10] = molecular target: T6, Human Id3: Histidine; experiment: ELISA, coated antigen, Ab 0.025 ug/ml
Human Id2: Histidine [11] = molecular target: T1, Human Id2: Histidine; experiment: ELISA, coated antigen, Ab 0.000 ug/ml (blank, diluent only)
Mouse Id4: Histidine [12] = molecular target: T2, Mouse Id4: Histidine; experiment: as above
Human Id4: Histidine [13] = molecular target: T4, Human Id4: Histidine; experiment: as above
Human Id3: Histidine [14] = molecular target: T6, Human Id3: Histidine; experiment: as above
Mouse Id2: Histidine [15] = molecular target: T7, Mouse Id2: Histidine; experiment: as above
Human Id2: Histidine [16] = molecular target: T1, Human Id2: Histidine; experiment: ELISA, coated antigen, Ab 0.250 ug/ml
Mouse Id4: Histidine [17] = molecular target: T2, Mouse Id4: Histidine; experiment: ELISA, coated antigen, Ab 0.250 ug/ml
Mouse Id1: Histidine [18] = molecular target: T3, Mouse Id1: Histidine; experiment: ELISA, coated antigen, Ab 0.250 ug/ml
Human Id4: Histidine [19] = molecular target: T4, Human Id4: Histidine; experiment: ELISA, coated antigen, Ab 0.250 ug/ml
Mouse Id3: Histidine [20] = molecular target: T5, Mouse Id3: Histidine; experiment: ELISA, coated antigen, Ab 0.250 ug/ml
Human Id3: Histidine [21] = molecular target: T6, Human Id3: Histidine; experiment: ELISA, coated antigen, Ab 0.250 ug/ml
Mouse Id2: Histidine [22] = molecular target: T7, Mouse Id2: Histidine; experiment: ELISA, coated antigen, Ab 0.250 ug/ml

| Substance | A450 (Human Id2: Histidine [1]) | A450 (Mouse Id4: Histidine [2]) | A450 (Mouse Id1: Histidine [3]) | A450 (Human Id4: Histidine [4]) | A450 (Mouse Id3: Histidine [5]) | A450 (Human Id3: Histidine [6]) | A450 (Mouse Id2: Histidine [7]) | A450 (Mouse Id4: Histidine [8]) | A450 (Mouse Id3: Histidine [9]) | A450 (Human Id3: Histidine [10]) | A450 (Human Id2: Histidine [11]) | A450 (Mouse Id4: Histidine [12]) | A450 (Human Id4: Histidine [13]) | A450 (Human Id3: Histidine [14]) | A450 (Mouse Id2: Histidine [15]) | A450 (Human Id2: Histidine [16]) | A450 (Mouse Id4: Histidine [17]) | A450 (Mouse Id1: Histidine [18]) | A450 (Human Id4: Histidine [19]) | A450 (Mouse Id3: Histidine [20]) | other results |
| --- | --- | --- | --- | --- | --- | --- | --- | --- | --- | --- | --- | --- | --- | --- | --- | --- | --- | --- | --- | --- | --- |
| rabbit monoclonal anti-human Id1, clone #BCH-2/#5-3 (antibody) | 0.048 A450 | 0.048 A450 | 0.057 A450 | 0.052 A450 | 0.052 A450 | 0.046 A450 | 0.05 A450 | 0.047 A450 | 0.046 A450 | 0.046 A450 | 0.049 A450 | 0.045 A450 | 0.046 A450 | 0.052 A450 | 0.051 A450 | 0.056 A450 | 0.053 A450 | 0.092 A450 | 0.047 A450 | 0.05 A450 | A450 (Human Id3: Histidine [21]): 0.048 A450; A450 (Mouse Id2: Histidine [22]): 0.052 A450 |
| rabbit monoclonal anti-mouse/human Id1, clone #BCH-1/#195-14 (antibody) | 0.048 A450 | 0.049 A450 | 1.39 A450 | 0.049 A450 | 0.05 A450 | 0.047 A450 | 0.054 A450 | 0.046 A450 | 0.047 A450 | 0.047 A450 | 0.058 A450 | 0.047 A450 | 0.046 A450 | 0.049 A450 | 0.051 A450 | 0.057 A450 | 0.048 A450 | 2.57 A450 | 0.048 A450 | 0.049 A450 | A450 (Human Id3: Histidine [21]): 0.052 A450; A450 (Mouse Id2: Histidine [22]): 0.053 A450 |
